B1: ADI-14559 (antibody, V domains shown)
VH: EVQLLESGGGLVKPGGSLRLSCAASGFIFTNAWMSWVRQAPGKGLEWVGRIKRKTETGTTDYAPPVKGRFTISRDDSRSTLYLQMNSLKTEDTAVYYCTTGPPYQYYDSTGYSVVDYWGQGTLVTVSS
VL: SYELTQPPSASGTPGQRVTISCSGSSSNIGSNIGINYVYWYQQLPGTAPKLLIYSTNQRPSGVPDRFSGSQSGTSASLAISGLRSEDEADYYCAAWDDSLSGPVFGGGTKLTVL
notes: IgG; also called Antibody Number 119
B2: ADI-14561 (antibody, V domains shown)
VH: QVQLVQSGAEVKKPGSSVRVTCKASGGTVSDYAITWVRQAPGQGLEWMGGFIPMFGVAKDAEKFQGRVTLTGDKSTNAVYMELSSLTSEDTAVYYCARSKRLPAGLSTSDYYYYYLDVWGKGTTVTVSS
VL: EIVLTQSPGTLSLSPGEGATLSCTASQNVFRTHVAWYQQTPGQAPRLLIYGGSTRATGIPDRFSGSGSGTDFTLIISRLEPEDFAVYYCHHFGTTPWTFGQGTKVEIK
notes: IgG
B3: ADI-14554 (antibody, V domains shown)
VH: QVQLVQSGGGLVKPGGSLRLSCAASGFAFSNAWMSWVRQAPGKGLEWLGRIKSETDGGTTDYAAPVKGRFSISRDDSRNTLYLQMNSLESEDTAVYYCTTGPPYKYFDSTGYSVVDYWGQGTLVTVSS
VL: SYELTQPPSASGTPGQRVTISCSGSSSNIGSNYVYWYQQLPGTAPRLLIYSTNQRPSGVPDRFSGSQSGTSASLAISGLRSDDEADYYCAAWDDRMSGPVFGGGTKLTVL
notes: IgG
B4: ADI-14560 (antibody, V domains shown)
VH: QVQLVQSGPELKKPGESLKISCKASGYSFTSFWIAWVRQMPGKGLEFLGIIYPGDADTRYSPSFQGQVTISADKSINTAYLQWNNLKASDTAMYYCARQTTMTPDAFDLWGQGTTVTVSS
VL: EIVLTQSPATLSLSPGERATISCRASQSVSSYLAWYQQKPGQAPRLLIYEASDRATGTPARFSGSGSGTDFTLTISSLEPEDFAVYYCQQRSNWGVGTFGQGTKVEIK
notes: IgG; also called Antibody Number 120
B5: ADI-14448 (antibody, V domains shown)
VH: EVQLVESGGGLVKPGGSLRLSCAASGSSFRYSYMSWVRQAPGKGLQWVASISPSSTYTDYADSVKGRSTISRDHDKISLQVNSLRGDDTAVYYCVRHMNLVMGPFAFDIWGRGTMVTVSS
VL: QSVVTQPPSLSGAPGQRITISCTGSSSNIGAGYDVNWYQQLPGTAPKLLIYAKTNRPSGVPERFSGSESGTSASLAITGLQPEDEADYYCQSYDRIGMYVFGTGTKLTVL
B6: ADI-14501 (antibody, V domains shown)
VH: QVQLVQSGAEVKKPGSSVKISCKASGGTFKSQAIHWVRQAPGQGLEWMGNIIPTYGSPNFAQRFLGRVTFIADDSTGAASMDLYRLTSEDTAVYYCATAGWFGELVRFDSWGQGTLVTVSS
VL: DIVMTQSPATLSVSPGERATLSCRATESISSNLAWYQQKPGQAPRLLIYGASTRATGIPARFSGSGSGTEFTLTINSLQSEDFAVYYCQQYNNWPPLTFGGGTKVDIK
B7: ADI-14441 (antibody, V domains shown)
VH: QVQLVQSGAEVKKPGSSVKISCKASGGTFNSQAIHWVRQAPGQDLEWMGNIIPGFGSPNSAQNFQGRVTFIADDSTGAAYMDLSSLKSEDTAVYYCATAGWFGESVHLDSWGQGTLVTVSS
VL: not shown

Each binder was assayed against RSV F protein of subtype B (18537) on recombinant mKate-RSV (Respiratory syncytial virus subtype B …, UniProt P13843 26-574) (assay: cell-based or functional assay).

Binder | Neut IC50 (µg/ml) subtype B [µg/mL]
B1 | 0.031
B2 | > 10
B3 | 0.787
B4 | > 10

What follows are binders tested against T1, RSV F protein of subtype A (strain A2) on recombinant mKate-RSV (Respiratory syncytial virus subtype A …, UniProt P03420 26-574) (assay: cell-based or functional assay).

Binder | Neut IC50 (µg/ml) subtype A [µg/mL]
B1 | 0.057
B2 | > 10
B3 | 0.736
B4 | > 10

Each binder was assayed against T2, RSV F ectodomain stabilized in the postfusion conformation (F ΔFP), subtype B (Respiratory syncytial virus subtype B, UniProt P13843 26-109; P13843 147-524) (assay: BLI, IgG on AHQ sensors, 100 nM antigen).
T2 construct: extracellular domain; trimer; also called Postfusion subtype B

Binder | Kd [nM]
B1 | 0.129
B2 | 2.28
B3 | 0.197
B4 | 0.329

Each binder was assayed against T3, RSV F ectodomain stabilized in the postfusion conformation (F ΔFP), subtype A (Respiratory syncytial virus subtype A, UniProt P03420 26-109; P03420 147-524) (assay: BLI, IgG on AHQ sensors, 100 nM antigen).
T3 construct: extracellular domain; trimer; also called Postfusion subtype A; Postfusion RSV F

Binder | Kd [nM]
B1 | 0.204
B2 | 3.09
B3 | 0.388
B4 | 0.874

Molecular target: T1, RSV F protein of subtype A (strain A2) …
Test: cell-based or functional assay
Remark: another data set of the same source

Binder | RSV-A2 IC50 [µg/mL]
B5 | 0.04
B6 | 12.4
B7 | > 25

These binders were tested against human metapneumovirus (HMPV) F protein on GFP-expressing hMPV (NL/1/00, A1 sublineage) (human metapneumovirus) (assay: cell-based or functional assay).

Binder | HMPV-A1 IC50 [µg/mL]
B5 | 0.05
B6 | 31.4
B7 | 37.8
